Experimental data reported in paper PMC5437227.

Legend:
[1] = target: pH-GluA1 S845D phosphomimetic mutant (UniProt P19490)
[2] = target: pH-GluA1 S831A phosphodeficient mutant (UniProt P19490); test: co-IP; HEK293 cells co-transfected with HA-Nedd4-1 and pH-GluA1 constructs, lysed 48 h later (1% Triton X-100 lysis buffer with 10 mM N-ethylmaleimide); immunoprecipitation with anti-GFP antibodies on protein A-Sepharose overnight at 4 °C; blots with anti-HA and anti-GluA1; bound HA-Nedd4-1 quantified and normalized to the wild-type control
[3] = target: pH-GluA1 S831D phosphomimetic mutant (UniProt P19490); test: as above
[4] = target: pH-GluA1 S845A phosphodeficient mutant (UniProt P19490); test: as above
[5] = target: pH-GluA1 S845D phosphomimetic mutant (UniProt P19490); test: as above

“HA-Nedd4-1 (from UniProt P46934 1-1319) (enzyme)” showed an AMPA-induced ubiquitination of pH-GluA1 S845D in cortical neurons (IP: GFP, blot for ubiquitin), relative to wild type (% of WT control) [1] of 65.2, an HA-Nedd4-1 binding, percent of WT control (% of WT control) [2] of 74.1 and an HA-Nedd4-1 binding, percent of WT control (% of WT control) [3] of 112. For the same substance, the HA-Nedd4-1 binding, percent of WT control (% of WT control) [4] was 90.9 and the HA-Nedd4-1 binding, percent of WT control (% of WT control) [5] was 53.2.
